# Values quoted from earlier work in US20140378381A1 (LATITUDE PHARMACEUTICALS, INC., priority 2011, published 2014).
# How the values were obtained:
# [1] = after injection
substance,measurement,setting,value
glucagon,onset of action,[1],5 to 20 min
same,glucagon decomposed into degradation products,"acidic solution (pH 2-4), 24 hours at 37° C.",5-70%
same,aggregation in aqueous solution,aqueous solutions of pH 3 or less,aggregate to form a gel within an hour
same,solubility in water,physiological pH (pH 4-8),insoluble
